Test results from article PMC9702538.

Assays:
[1] = target: zebrafish Comp, tissue-derived (zebrafish (endogenous in 5 dpf whole zebrafish)); test: non-reducing agarose/polyacrylamide composite gel electrophoresis; sequential extracts (TBS; 1 M NaCl/EDTA; 8 M urea) of whole 5 dpf zebrafish; 0.5% agarose/3% polyacrylamide composite gel, non-reducing; immunoblot with guinea pig antibodies to zebrafish Comp
[2] = target: recombinant zebrafish Comp (cartilage oligomeric matrix protein) (zebrafish); test: non-reducing agarose/polyacrylamide composite gel electrophoresis; purified recombinant Comp; 0.5% agarose/3% polyacrylamide composite gel, SDS sample buffer with 2 M urea, non-reducing; immunoblot with guinea pig antibodies to zebrafish Comp; recombinant rat COMP as marker of the pentamer

Row | stoichiometry N [1] | stoichiometry N [2] | Substance
1 | 5 |  | zebrafish Comp, tissue-derived (natural protein)
2 |  | 5 | recombinant zebrafish Comp (cartilage oligomeric matrix protein)
